Data on eight compounds can be found in patent US8221773B2, “Hydrogels and uses thereof” (University of Delaware, priority 2004, dated 2012).

The conditions of data set [1]: cited from earlier work.
A short description of data set [2]: Temperature dependent CD: temperature at which folding and self-assembly is triggered (Tgel). The data set is classed as physicochemical. As to conditions: for temperature at which folding and consequent self-assembly is triggered (Tgel): 150 μM peptide, 125 mM Borate, 10 mM NaCl, pH 9, CD ellipticity at 218 nm. The source says:
At low temperature MAX1 is unfolded (and unassembled). At high temperature MAX1 folds into beta-sheet (and consequently self-assembles into a hydrogel). […] The relative hydrophobicity is MAX1>MAX2>MAX3 due to the isostructural but less hydrophobic substitutions of threonine for valine at the underlined positions. The most hydrophobic folds at the lowest temperature while the least hydrophobic folds at the highest temperature. This is a direct manifestations of the molecular parameter manipulations described in FIG. 2. Also shown are the calculated free energy of transfer of each corresponding unfolded peptide having an overall +8 charge state from octanol into water at 25° C. MAX1, the most hydrophobic has the highest free energy of transfer equal to 7.60 kcal/mol. MAX2 has a calculated transfer free energy of 6.88 kcal/mol, while the least hydrophobic MAX3 has the lowest energy of transfer of 6.45 kcal/mol.
This allows the characteristics of the hydrogels of the invention to be varied by adjusting these parameters. […] It is well known that water is better able to solvate hydrophobic groups at low temperatures. This phenomenon has been used to describe the cold denaturation of proteins where some proteins unfold at low temperatures, exposing their hydrophobic interiors to aqueous solvent. A 150 μM aqueous solution of MAX1 unfolds when cooled below room temperature. The CD spectrum at 5° C. is consistent with random coil conformation, FIG. 9A. However, warming the solution to 40° C. results in a spectra consistent with β-sheet structure. […] In fact, previous studies involving the pH induced folding and self-assembly of MAX1 were performed at 20° C. At this temperature, folding and self-assembly are slow enough to be conveniently monitored. At higher temperatures, folding and self: assembly leading to hydrogelation is fast (instantaneous to seconds depending on concentration). If the formation of hydrophobic interactions affects the folding and self-assembly process, then altering the hydrophobic content of MAX1 should affect the temperature at which folding is triggered. […] MAX2 is identical to MAX1 except that one valine residue has been replaced with the isostructural, but less hydrophobic residue, threonine. In MAX3, two valines are replaced with threonine residues. The resulting peptides vary in their hydrophobicity as evident by comparing calculated free energies of transfer from octanol into water, FIG. 9. […] Thus, the formation of hydrophobic contacts influences folding and self-assembly. […] Thus, the characteristics of the hydrogels of the invention can be varied by adjusting the amino acid residues of the peptides used to form the hydrogels to increase or decrease the hydrophobicity of the amino acid residues used.
There are reports of large polymers that are thermally responsive. The present invention provides the first system that employs temperature triggered folding to induce self-assembly. […] Heating the solution to 80° C. results in a spectra consistent with β-sheet structure. […] The temperatures used in both CD and rheology bracket the temperature (Tgel=60° C., FIG. 9) at which folding and consequent self-assembly is triggered. […] For example, free flowing peptide solutions could be prepared at room temperature and administered in vivo where the temperature of the body could induce gelation. […]

Data set [3] is described as follows: Hydrogelation by folding and self-assembly. It counts as physicochemical. The conditions noted are these: for reversibility of thermally induced hydrogelation: pH 9, heating/cooling cycles. The protocol:
The ability of MAX1 to undergo hydrogelation is dependent upon its unimolecular folded state. Under basic aqueous solution conditions (pH 9.0, 125 mM Borate, 10 mM NaCl), where some of the lysine side chains of MAX1 are neutral, this peptide intramolecularly folds into an amphiphilic β-hairpin (folding can also be triggered at pH 7 under physiological conditions). One face of the hairpin is lined with hydrophobic valine residues while the other face is lined with hydrophilic lysine residues, FIGS. 2 and 3A. After intramolecular folding, subsequent self-assembly of hairpins is facilitated (a) laterally via H-bond formation and attractive hydrophobic interactions between distinct hairpins as well as (b) facially by hydrophobic association of the valine-rich faces of the folded peptide resulting in hydrogelation, FIG. 3B. Since the charged state of the lysine residues are controlled by pH, the unimolecular folding is reversible. Lowering the pH below the intrinsic pKa of the lysine side chains results in intra-strand charge repulsion from neighboring lysines and subsequent unfolding of individual hairpins, ultimately dissolving the self-assembled hydrogel structure. This reversible behavior is unique when compared to β-sheet-rich hydrogels prepared from classical fibril-based designs. In these systems, the self-assembly process is irreversible.
There are reports of large polymers that are thermally responsive. The present invention provides the first system that employs temperature triggered folding to induce self-assembly. […] Heating the solution to 80° C. results in a spectra consistent with β-sheet structure. […] The temperatures used in both CD and rheology bracket the temperature (Tgel=60° C., FIG. 9) at which folding and consequent self-assembly is triggered. […] For example, free flowing peptide solutions could be prepared at room temperature and administered in vivo where the temperature of the body could induce gelation. Some Poly-N-isopropylacrylamide polymers have been engineered have been engineered to undergo such transitions ultimately affording extracellular-like scaffolds for tissue regeneration. The above studies support the idea that the formation of hydrophobic interactions are important. MAX1-3 all contain valines and threonines at hydrogen bonded positions. At these positions, their side chains prefer to adopt a trans rotamer. As a result, hydrophobic residues that oppose each other across the hairpin point their side chains in opposite directions thus making the formation of intramolecular hydrophobic interactions across the strands difficult, FIG. 11A. However, these side chains are nicely positioned to interact laterally with the hydrophobic side chains of neighboring hairpins in the self-assembled state, FIG. 11B. Forming these lateral hydrophobic interactions should favor self-assembly. […] In MAX4, opposing valine side chains are expected to point towards each other, FIG. 11B. Thus, the valine side chains of MAX4 are less likely than those in MAX1 to form lateral intermolecular hydrophobic interactions. If the formation of lateral intermolecular hydrophobic interactions is of more importance for self-assembly than intramolecular hydrophobic contacts, then the rate of self-assembly should be faster for MAX1 than for MAX4. This difference in rate should be evident in the rate of storage moduli (rigidity) increase. […] (Tgel=20° C. for both peptides). […]

A short description of data set [4]: CD spectroscopy of peptide folding (random coil vs β-sheet). The conditions noted are these: 150 μM solution, pH 9.0, 125 mM Borate, 10 mM NaCl. It counts as physicochemical. The procedure: Time-dependent circular dichroism (CD) studies support a hydrogelation mechanism consistent with intramolecular hairpin formation followed by self-assembly. […] At temperatures >25° C. the folding and self-assembly of MAX1 occurs on the order of seconds. […] This behavior is consistent across all spectro- and microscopic methods used to interrogate MAX1. For example, at micromolar concentrations used for the CD studies shown in FIGS. 4A and 4B, self-assembly takes hours at 20° C. At millimolar concentrations, such as those used in the rheological studies described below, self-assembly leading to hydrogel takes minutes at 20° C.
The reversibility of the folding and self-assembly process was investigated by measuring θ216 as a function of pH and time as shown in FIG. 4C. CD of a stirred solution of MAX1 at pH 5.5 indicates random coil conformation. Adjusting the pH to 9.0 by the addition of NaOH results in β-sheet formation as expected. However, subsequent adjustment of the pH to 6.0 results in complete loss of sheet signal and full recovery of random coil signal. […] Again, this reversible behavior is not observed in hydrogels formed from amyloid/prion-like fibrils.
In some embodiments of the invention, various functionalities (e.g., cell adhesion epitopes, receptor agonists, receptor antagonists, ligands, small molecules, etc) may be incorporated into the hairpin hydrogel scaffold. One way to accomplish this would be to functionalize one or more amino acid side chains of the peptide. […] In some embodiments, the moieties to be incorporated at a particular side chain may be much larger (e.g. RGD-based motifs) and may contain charged residues. MAX5 (VKVKVKVKV^DPPTKVKEKVKV-NH2) was prepared to investigate the possibility of incorporating a charged residue on the hydrophobic face of MAX1. The sequence contains a glutamic acid residue at position 16 which is negatively charged at basic pH where MAX1 normally folds and assembles. […] However, alterations to the hydrophilic face of MAX1 are well tolerated. Sequences in which one or two lysine residues are replaced with other residues such as cysteine, serine, and glutamic acid are capable of folding and self-assembly into rigid hydrogels (data not shown).
The peptides described above contain identical turn sequences, namely (-V^DPPT-). This sequence has a strong propensity to form a type II′ turn and therefore helps to drive intramolecular folding. Since intramolecular folding must occur prior to self-assembly, alterations to this turn sequence that inhibit turn structure formation can be used to modulate intramolecular folding and self-assembly leading to hydrogelation. MAX9 was prepared to probe the importance of the turn region (VKVKVKVKV^LPPTKVKVKVKV-NH2). […]

pKd: −log10 of the molar value. Where no end group is shown, it is not given here. [ ]: non-standard residue; d: D form.

As to `NC(=O)CN1CCN(CC(N)=O)CCN(CC(N)=O)CCN(CC(N)=O)CC1` [DOTAM], in data set [1] (read-out: Kd for calcium), the negative-log Kd (pKd) was 7.54.

-DRKADGYIDFEE-: the “Kd for Ca(II)” value in data set [1] (linear peptide) is reported as “low mM”.

As for “KVKVKVKV K^DPPS VKVKVKVK-NH2 (chain 1 KVKVKVKVK[dP]PS; not fully specified) [MAX4]”, the “temperature at which folding and consequent self-assembly is triggered (Tgel)” value in data set [2] was 20 °C.

In the case of “VKVKVKTK V^DPPT KVKTKVKV-NH2 (not fully specified (C-terminus)) [MAX3]”, the “reversibility of thermally induced hydrogelation” value in data set [3] is listed as “thermally reversible”. Also, the “temperature at which folding and consequent self-assembly is triggered (Tgel)” value in data set [2] worked out at 60 °C.

With “VKVKVKVK VPPT KVKVKVKV-NH2 (VKVKVKVKVPPTKVKVKVKV-NH2) [MAX9]”, the “hydrogelation under folding conditions” value in data set [3] (2 wt % solutions) is “failed to undergo hydrogelation”. In data set [4], the “conformation by CD under folding conditions” value is on record as “only random coil”.

In the case of “VKVKVKVK V^DPPT KVKCKVKV-NH2 (not fully specified (C-terminus)) [MAX6]”, the “ability to fold and self-assemble” value in data set [3] was “folds and self-assembles”.

Regarding VKVKVKVK V^DPPT KVKEKVKV-NH2 [MAX5], the “conformation by CD under folding conditions” value in data set [4] is “random coil”.

Turning to “VKVKVKVK V^DPPT KVKTKVKV-NH2 (not fully specified (C-terminus)) [MAX2]”, the “reversibility of thermally induced hydrogelation” value in data set [3] is “not reversible”. Further, in data set [2] (pH 9 (10 mM NaCl)), the “temperature above which peptide folds/self-assembles” value was “greater than 45 °C” and the “temperature below which peptide is unfolded” value was “below 40 °C”.

As usually defined, the pKd is −log10 of the Kd, conventionally taken in molar units.
